Assay results as given in the supplement of paper PMC9170038.

System: MS2 coat protein
Test: apparent KD of MS2 coat protein; designed switch direction (-1 OFF switch, 1 ON switch): -1; higher = weaker reporter binding
Procedure, shortened: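 SNAP-549-labelled MS2 coat protein was titrated, doubling from 0.7 or 1.5 nM to 3 µM, over designed RNA switches transcribed on Illumina chips by stalled E. coli RNA polymerase. Runs were done without input, with 200 uM small-molecule ligand, or with an oligonucleotide input. Apparent KD is the per-design median over clusters of curve-fitted normalised fluorescence.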

[1] = Eterna round: R95, input ligand: microRNA oligo, concentration not stated
[2] = Eterna round: R95, input ligand: FMN 200 uM
[3] = Eterna round: R95, input ligand: none
[4] = input ligand: microRNA oligo, concentration not stated

Sequence | apparent KD of MS2 coat protein [1] | apparent KD of MS2 coat protein (input ligand: FMN 200 uM) | apparent KD of MS2 coat protein (input ligand: none) | other results
AGAUUACGAGGAUAUCGAUUUUAGUACAUGAGGAUCACCCAUGUUAUCCAGGUCUCGUUUCGAGAAGGCGUGAUUC [LRO-Ex5-07] (puzzle: Exclusion 5) | 196 nM | – | – | –
UAAAAUAGUGUGAGGAUAUGCUGGUCCUUGGAUCAGCAGAAGGCACAUGAGGAUCACCCAUGUAGUUAAUUUUA [Mat - Exclusion 4 - JL Mod - D23] (puzzle: Brourd's mod of Exclusion 4) | 30.8 nM | – | – | –
AAUUUCAUUGUGAGGAUAUGCCCAAAUAAAAGCGGGCAGAAGGCACAUGAGGAUCACCCAUGUCCUGCGGUUAU [salish99_bmx4_r4_152] (Eterna round: R97, puzzle: Brourd's mod of Exclusion 4) | – | 471 nM | 37.5 nM | –
AGUAUAGUCCAUGGCCGCAAGCUUUUUACUUGUCUUACCACAUGAGGAUCACCCAUGUGACAUGGGCACCUUAUGAU [Sensor v3, turn-off variant 2 (MOD of Oranla v.4)] (puzzle: Sensor v3, turn-off variant 2) | 34.3 nM | – | – | apparent KD of MS2 coat protein [2]: 20.4 nM; apparent KD of MS2 coat protein [3]: 19.6 nM
AGAUCCACCGAGGAUAUUGGAGUGAUAUCACUCUAAGAAGGCGGUACAUGAGGAUCACCCAUGUGAUACCCAGA [Eternabot (Original) Solution 15] (Eterna round: R97, puzzle: Exclusion 6) | – | 551 nM | 316 nM | –
UAGGAUACCGUCAGGAUAUAGAGUUCCCACAGACUCUAGAAGGGACAUGAGGAUCACCCAUGUCGUGCAACGUU [Eternabot (L1) Solution 54] (Eterna round: R97, puzzle: Brourd's mod of Exclusion 4) | – | 20.2 nM | 16.2 nM | –
AACGAUCUAGGAUAUACAUGAGGAUCACCCAUGUAAGAGCUCAAACCGAGCUCCCUCUGUAGAAGGAGGUCAAA [Atquteuson] (puzzle: Exclusion 3) | 48.5 nM | – | – | –
GCUGGGUCAGGAUAUACAAGAUCGAAAGAUCAAAGAUUCGUACAUGAGGAUCACCCAUGUAGAAGGGACUGGGC [ChP 11-04-2015 #8] (puzzle: Exclusion 2) | 17.2 nM | – | – | –
CGUCUGUGAGGAUAUGGUAUCGUUUACAUGAGGAUCACCCAUGUUACAUGGGACUAGAGACUAGAAGGUACUGACG [EX5 #47] (Eterna round: R97, puzzle: Exclusion 5) | – | 628 nM | 878 nM | –
CACAAAGUAGGAUAUAGAAUAAAAGACAUGAGGAUCACCCAUGUGUCGUUCAAGGUGAACCUAGAAGGACUGAAAA [EX5 A.28] (Eterna round: R97, puzzle: Exclusion 5) | – | 45.1 nM | 116 nM | –
CAGGUGUUAGGAUAUCGGAGAUCGAGGCCGACGGGAAAAGCCGAGAAGGAACAUGAGGAUCACCCAUGUAGGUG [JR_Exclu4_Sub035] (puzzle: Exclusion 4) | 235 nM | – | – | apparent KD of MS2 coat protein [2]: 347 nM; apparent KD of MS2 coat protein [3]: 223 nM
ACCUCCGCGAAGGAUAUUAGCACAUUGACAGAUUGAGAAGGUCGCACAUGAGGAUCACCCAUGUGAGGUCAUCC [Eternabot (L1) Solution 82] (Eterna round: R97, puzzle: Exclusion 6) | – | 19.3 nM | 21.5 nM | –
UACCUGAGGCUUUGCUUUAGGUAUACAUGAGGAUCACCCAUGUAGGAUAUGGUAGGCUUUGCUUACCAGAAGGACAUGUUAAUU [JL ENG3 1.09] (Eterna round: R96, puzzle: Exclusion NG 3) | – | 141 nM | 29 nM | apparent KD of MS2 coat protein [4]: 30.9 nM
AGUUGUUGCGUAGGAUAUGAGGAUCACCCAUAGUAGGAUAACGAAAGUGAAGGACUGAGGAUUACCCAGAAGGACGUGAUGACA [pwkr exNG2 2xF5 2xFMN.6] (Eterna round: R96, puzzle: Exclusion NG 2) | – | 602 nM | 193 nM | apparent KD of MS2 coat protein [4]: 234 nM
UUUUGGCAUGUAGGAUAUGGGUCCGAUUAGGAUUUAGAAGGACAUGAGGAUCACCCAUGUGCAUUUAAUUGGUCUUUUUUUUUU [EXclNG1-LROPPY15] (Eterna round: R96, puzzle: Exclusion NG 1) | – | – | – | apparent KD of MS2 coat protein [4]: 80 nM
CUGAGGUAGCGGUCCUAUGACAUGAGGAUCACCCAUGUACCUUGCUACAAGCUUUUUGCUCGUCUUAUGAUUCUCGG [JL Atriat mod 8] (Eterna round: R96, puzzle: Sensor v3, turn-off variant 1) | – | 81.3 nM | 82.7 nM | apparent KD of MS2 coat protein [4]: 154 nM
GUGUACGGAGGAUAUAUGUGGGCAGCAUACGCUGCAGCUUCACAUGAGGAUCACCCAUGUAGAAGGCUGUGCAC [JL-ex2-2.11 Brourd mod] (puzzle: Exclusion 2) | 20.1 nM | – | – | –
CCGGAAAUACAGGAUAUAGGAGUCAAUAGACUCCUAGAAGGGUAUACAUGAGGAUCACCCAUGUGUCCUACCGG [Fiskers Ex 6 - 66] (Eterna round: R96, puzzle: Exclusion 6) | – | 39.9 nM | 27.7 nM | apparent KD of MS2 coat protein [4]: 23.3 nM

Sequence | apparent KD of MS2 coat protein [1] | apparent KD of MS2 coat protein (input ligand: FMN 200 uM) | apparent KD of MS2 coat protein (input ligand: none) | other results
AAGAACUUAGGAUAUACAUGAGGAUCACCCAUGUAGCUUCACUUGGGCCUGAGCCCGUGUAGAAGGAAGAAAAU [Arge] (puzzle: Exclusion 3) | 66 nM | – | – | –
CGGUGCUGAGGAUAUACAUGAGGAUCACCCAUGUGUGCCAGCUAGCUGACUGGCGCUUGUAGAAGGCAGUACUG [JL-ex3-2.12 Brourd mod] (puzzle: Exclusion 3) | 11.4 nM | – | – | –
UAUUAUCAAGCUAGAUCCCACAUGAGGAUCACCCAUGUGCUCGUCUUAAUUCCAGAAUUACUGGGCUCUCGUCUUAU [JR_STOV1_Sub091] (Eterna round: R97, puzzle: Sensor, turn-off variant 1) | – | 45.5 nM | 45.1 nM | –
GAGGAGCAAGGAUAUACGAGGAUAUGGAAGGUUGGAGAGUGACAUGAGGAUCACCCAUGUAGAAGGUGCAAGGG [JR_Exclu2_Sub096] (puzzle: Exclusion 2) | 91.8 nM | – | – | apparent KD of MS2 coat protein [2]: 65.9 nM; apparent KD of MS2 coat protein [3]: 131 nM
UAUAUAUAGUAAGGAUAUGUAAUUAUUUUACAAACAGAAGGUACUGACAUGAGGAUCACCCAUGUUUUAGUGUGGGCAUGUAGA [JMF's solution 46] (Eterna round: R96, puzzle: Exclusion NG 1) | – | – | – | apparent KD of MS2 coat protein [4]: 39.7 nM
AAAAGGUCAGGAUAUCGACGCGGUUGGGAGGCAGGUCCGCGCGAGAAGGGACAUGAGGAUCACCCAUGUUAAAA [Excls4-IV] (puzzle: Exclusion 4) | 22.8 nM | – | – | apparent KD of MS2 coat protein [2]: 33.5 nM; apparent KD of MS2 coat protein [3]: 26.4 nM
UAUGUUGUUGUGAGGAUAUACUUUGUUUGGUCGUAGUAGAAGGCACAUGAGGAUCACCCAUGUAGAUUUUUGGU [JR_BME4_Sub009] (puzzle: Brourd's mod of Exclusion 4) | 20 nM | – | – | –
CUAUAAGGUGUUAGGAUAUCGGCUCGAGGUACUAGCGAGAAGGAACAUGAGGAUCACCCAUGUGGUCAUGAUUU [Eternabot (L2) Solution 60] (Eterna round: R97, puzzle: Brourd's mod of Exclusion 4) | – | 152 nM | 139 nM | –
AGUAGAUCUACGCUUGCGUGGAUCUGCAUUGCAAGUGUAACAUGAGGAUCACCCAUGUCCUCAUUUGCUCGUCUUAU [JL turnoff v2 99.02] (puzzle: Sensor v3, turn-off variant 2) | 277 nM | – | – | apparent KD of MS2 coat protein [2]: 54.4 nM; apparent KD of MS2 coat protein [3]: 54.2 nM
UUAUUGUAUGUAGGAUAUGCGUAUUAUUGUUAUGCAGAAGGACAUGAGGAUCACCCAUGUAUAUUAUUGUUAUAUAUUAUAUAU [Title] (Eterna round: R96, puzzle: Exclusion NG 1) | – | 60.9 nM | 26.7 nM | apparent KD of MS2 coat protein [4]: 22.7 nM
CUGAGGUAGCGGUCCUAUGACAUGAGGAUCACCCAUGUACCUUGCUACAAGCUUUUUGCUCGUCUUAUGAUUCUCGG [JL Atriat mod 8] (puzzle: Sensor v3, turn-off variant 1) | 123 nM | – | – | apparent KD of MS2 coat protein [2]: 58.1 nM; apparent KD of MS2 coat protein [3]: 70.2 nM
CUGAUUCUAGUAAGGAUAUCGGCGUGCACAGCAGCCGAGAAGGUACAUGAGGAUCACCCAUGUUGCUUCAACUU [Eternabot (Original) Solution 43] (Eterna round: R97, puzzle: Brourd's mod of Exclusion 4) | – | 69.5 nM | 31.2 nM | –
GGAAAGUGAGGAUAUGGUAAAGUAAGUAUGUAGUAAGUAAUCCAGAAGGCACAUGAGGAUCACCCAUGUAAAUG [Mat - Exclusion 4 - D100] (puzzle: Exclusion 4) | 27.2 nM | – | – | –
ACAAGCUUUUUGUUCGUCUUAUAAAAUCCUAAGAGGAAAACAUGAGGAUCACCCAUGUAACAAAGACGGACUCAUGU [Sesor Array 12 - Jieux - Sensor v3, turn-off variant 2] (puzzle: Sensor v3, turn-off variant 2) | 125 nM | – | – | apparent KD of MS2 coat protein [2]: 13.4 nM; apparent KD of MS2 coat protein [3]: 10.8 nM
GAAAAUAGUGAGGAUAUAUCACGGAUACCCGAGAUAGAAGGCACUACAUGAGGAUCACCCAUGUUCGGGUGUCC [Areleon] (Eterna round: R97, puzzle: Exclusion 6) | – | 107 nM | 79.3 nM | –
UGACGCACGCGAGGAUAUUCCCACGAAACAAACAACGAAGGGUACAUGAGGAUCACCCAUGUGGCGAAGAAGGCGCGCGUCCGG [Eternabot solution 1] (Eterna round: R96, puzzle: Exclusion NG 2) | – | 923 nM | 1310 nM | apparent KD of MS2 coat protein [4]: 503 nM
UAAAAGCUAGGAUAUACAUGAGGAUCACCCAUGUCACGGGUCCACUCAUCCUAUACGUGUAGAAGGAGCGACCC [Ceriza] (puzzle: Exclusion 3) | 20 nM | – | – | –
